# Ends that are not written are not given here.
# What was measured:
# [1] = 10 °C; cited from earlier work
# [2] = cited from earlier work
# actin = conditions: literature statement, no reference printed at this sentence; cited from earlier work
# cofilin = conditions: cited from earlier work
# [3] = biological target: T1, αTM1b_(1-19)Zip (1bNTD), unlabeled synthetic peptide (rat | yeast); test: circular dichroism titration
# T1 chain: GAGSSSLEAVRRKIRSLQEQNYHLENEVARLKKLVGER
molecule,measurement,setting,value
"9aCTD: residues 251-284 of rat striated α-tropomyosin encoded by exon 8 and exon 9a with GCG at the N-terminus (GCGKSIDDLEDELYAQKLKYKAISEELDHALNDMTSI; not fully specified; UniProt P04692 251-284, looked up, fragment)",helical content of 9aCTD,[1],greater than 75%
same,TM of unfolding of 9aCTD,[2],~ 25 °C
Cofilin: actin filament binding and severing protein,affinity of cofilin for the actin filament,actin,high affinity
Tropomyosin,inhibition of cofilin binding and severing,cofilin,competitive inhibitor
"GCGGSIDDLEEKVAHAKEENLSMHQMLHQTLLELNNM (also: disulfide cross-link between two chains through Cys2 (dimer)) [α-TM9d_(252-284) (9dCTD), disulfide cross-linked]",Kd,[3],< 500 nM
same,stoichiometry N,[3],0.94 ± 0.03 molar ratio

# Source: article PMC4410877 (Biochemistry, 2009)
